Measurements published in PMC3070541.

Target: 2A3-D NKT TCR βL95A, on 5KC hybridoma (mouse)
Assay: flow cytometry on cells

mouse CD1d tetramer loaded with α-galactosylceramide (αGC) (from UniProt P11609 22-336; P01887 21-119) (complex)
reduction of tetramer binding against the wild type: 10%
